These are literature values, as cited in PMC12608641.

Broadly, the Kd is the concentration at which binding is half-saturated.

The target in this series is p55 (Homo sapiens) (UniProt Q9UHN1). Briefly: ultracentrifugation.

Take p55 (from UniProt Q9UHN1): the Kd was < 0.1 nM.
